Data set [1] addresses N. gonorrhoeae FtsW, bacterial two-hybrid fusion (Neisseria gonorrhoeae CH811) (UniProt B4RQC6). The data set is described as follows: two-hybrid; bacterial two-hybrid (Di Lallo): fusions to P22 and 434 repressor ends in E. coli R721, 34 °C; residual β-galactosidase activity against R721 without plasmids (2504 ± 34 Miller units); less than 50% counts as a positive interaction.

Data set [2] addresses N. gonorrhoeae FtsK, bacterial two-hybrid fusion (Neisseria gonorrhoeae CH811). The description is as above.
Data set [3] concerns the target N. gonorrhoeae FtsN, bacterial two-hybrid fusion (Neisseria gonorrhoeae CH811). The description is as above.
Data set [4] addresses N. gonorrhoeae FtsZ, bacterial two-hybrid fusion (Neisseria gonorrhoeae) (UniProt P72079). The data set is described as above.
Data set [5] has as its target T1, N. gonorrhoeae FtsQ, bacterial two-hybrid fusion (Neisseria gonorrhoeae CH811, UniProt Q5F6M1 1-242).
T1 construct: FtsQ of Neisseria gonorrhoeae CH811, amplified from genomic DNA with primers P5/P6 (start codon to stop codon); Cloned in both vectors (pcIp22 and pcI434); each fusion carries one of the two repressor ends; also called FtsQNg; pcIp22-Q; source: bacterial two-hybrid fusion, expressed in E. coli R721
T1 sequence (looked up): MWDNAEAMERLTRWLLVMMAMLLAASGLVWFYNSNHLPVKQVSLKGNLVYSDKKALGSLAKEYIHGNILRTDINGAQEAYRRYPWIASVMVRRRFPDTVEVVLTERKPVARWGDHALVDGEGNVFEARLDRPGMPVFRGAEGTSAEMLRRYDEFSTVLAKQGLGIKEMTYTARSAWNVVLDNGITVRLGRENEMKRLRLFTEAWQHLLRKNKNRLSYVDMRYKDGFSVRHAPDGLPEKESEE
The description is as above. The note with it: partners not purified.

The target of data set [6] is T2, N. gonorrhoeae FtsW, bacterial two-hybrid fusion (Neisseria gonorrhoeae CH811, UniProt B4RQC6 1-462).
T2 construct: FtsW of Neisseria gonorrhoeae CH811, amplified from genomic DNA with primers P9/P10 (start codon to stop codon); Cloned in both vectors (pcIp22 and pcI434); each fusion carries one of the two repressor ends; also called FtsWNg; pcIp22-W; source: bacterial two-hybrid fusion, expressed in E. coli R721
T2 sequence (looked up): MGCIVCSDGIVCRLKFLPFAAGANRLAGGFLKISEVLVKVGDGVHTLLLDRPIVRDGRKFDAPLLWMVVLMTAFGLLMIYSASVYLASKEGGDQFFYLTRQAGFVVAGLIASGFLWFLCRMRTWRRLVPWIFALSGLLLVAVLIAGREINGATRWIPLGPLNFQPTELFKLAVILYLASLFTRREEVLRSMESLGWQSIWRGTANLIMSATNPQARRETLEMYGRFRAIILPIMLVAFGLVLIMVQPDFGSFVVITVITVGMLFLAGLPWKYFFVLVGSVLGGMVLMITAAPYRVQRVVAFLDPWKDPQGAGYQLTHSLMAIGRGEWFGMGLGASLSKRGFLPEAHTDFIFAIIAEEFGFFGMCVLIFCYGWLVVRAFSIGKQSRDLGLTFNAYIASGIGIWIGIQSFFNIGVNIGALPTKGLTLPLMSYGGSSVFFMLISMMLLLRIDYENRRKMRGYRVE
The data set is described as above. To be noted: partners not purified.

Data set [7] concerns the target His-FtsNNg (ligand of the SPR) (Neisseria gonorrhoeae). Put plainly: SPR; Bio-Rad XPR36, ProteOn HTE chip activated with NiSO4; His-FtsQNg or His-FtsNNg immobilised at 200 nM; two-fold dilutions of FtsANg in PBST (0.1% BSA, 0.05% Tween-20, pH 7.9), 30 μl/min, 120 s, then 300 s buffer; Langmuir 1:1 kinetic fit.
In data set [8] the target is T3, FtsANg (analyte of the SPR with FtsQNg and FtsNNg) (Neisseria gonorrhoeae CH811, UniProt Q5F6M2 1-414).
T3 construct: FtsA of Neisseria gonorrhoeae CH811; GST in PBST as the negative-control analyte hints at GST-FtsANg (surmise); source: E. coli C41 (DE3), purified
T3 sequence (looked up): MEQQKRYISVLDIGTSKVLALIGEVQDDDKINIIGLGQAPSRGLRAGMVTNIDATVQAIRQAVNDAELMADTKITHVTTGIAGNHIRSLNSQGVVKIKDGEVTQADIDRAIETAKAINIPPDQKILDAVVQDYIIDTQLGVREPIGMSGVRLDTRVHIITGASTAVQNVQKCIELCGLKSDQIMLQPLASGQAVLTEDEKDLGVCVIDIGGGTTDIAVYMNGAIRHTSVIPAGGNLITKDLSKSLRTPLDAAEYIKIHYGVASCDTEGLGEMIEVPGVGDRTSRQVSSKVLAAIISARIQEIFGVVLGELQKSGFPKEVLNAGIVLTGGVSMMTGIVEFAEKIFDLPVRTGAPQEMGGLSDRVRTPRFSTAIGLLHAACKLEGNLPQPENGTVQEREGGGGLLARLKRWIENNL
The description is as above. The note with it: both partners purified.

The target of data set [9] is His-FtsANg (Neisseria gonorrhoeae CH811) (UniProt Q5F6M2). The data set is described as follows: SPR; FtsANg immobilised on the HTE chip; polymerized FtsZNg (with GTP) at 6 and 12 μM injected for 120 s, 300 s dissociation; MES buffer with 0.1% BSA, 0.05% Tween-20, 1 mM ATP, pH 7.5; Langmuir 1:1 kinetic fit.
Data set [10] deals with the molecule itself. The data set is described as follows: 90° light scattering + negative-stain electron microscopy; FtsZNg about 6 μM in MES buffer (50 mM MES-NaOH, 50 mM KCl, 10 mM MgCl2, pH 7.5), 2 mM GTP, 30 °C; polymerisation.

The record followed here is publication PMC5727935, “The distinctive cell division interactome of Neisseria gonorrhoeae” (BMC Microbiology, 2017).

In the case of “N. gonorrhoeae FtsI, bacterial two-hybrid fusion (natural protein)”, the residual β-galactosidase activity in data set [1] amounted to 35%.

Turning to “N. gonorrhoeae FtsN, bacterial two-hybrid fusion (natural protein)”, in data set [2], the residual β-galactosidase activity turned out to be 31%.

B1: N. gonorrhoeae FtsA, bacterial two-hybrid fusion (natural protein, Neisseria gonorrhoeae CH811, UniProt Q5F6M2 1-414, looked up)
chain: T3 sequence (looked up)
notes: FtsA of Neisseria gonorrhoeae CH811, amplified from genomic DNA with primers P1/P2 (start codon to stop codon); ends at Leu414 by the limits of the truncations; Cloned in both vectors (pcIp22 and pcI434); each fusion carries one of the two repressor ends; also called FtsANg; pcIp22-A; source: bacterial two-hybrid fusion, expressed in E. coli R721
Regarding B1, the residual β-galactosidase activity in data set [2] stood at 30%; in data set [3] it was 24%; in [4], 40%; in data set [5] it was 48%; in data set [6], 45%.

B2: FtsANg (analyte of the SPR with FtsQNg and FtsNNg) (natural protein)
chain: T3 sequence (looked up)
In [7], B2 came in with an equilibrium dissociation constant (Kd) of 53.3 nM, a koff of 0.00616 s⁻¹ and a kon of 115000 M⁻¹ s⁻¹.

B3: His-FtsQNg (natural protein, Neisseria gonorrhoeae CH811, UniProt Q5F6M1 1-242, looked up)
chain: T1 sequence (looked up)
notes: FtsQ of Neisseria gonorrhoeae CH811, full-length ftsQ (primers P17/P18) cloned BglII/EcoRI into pET30a; also called pETQ
In data set [8], B3 showed a Kd of 15.1 nM, a koff of 0.00409 s⁻¹ and an on-rate constant (kon) of 272000 M⁻¹ s⁻¹.

B4: FtsZNg, His tag cleaved with thrombin (natural protein, Neisseria gonorrhoeae CH811, UniProt P72079 1-392, looked up)
chain: MEFVYDVAESAVSPAVIKVIGLGGGGCNAINNMVANNVRSVEFISANTDAQSLAKNHAAKRIQLGTNLTRGLGAGANPDIGRAAAQEDREAIEEAIRGANMLFITTGMGGGTGTGSAPVVAEIAKSLGILTVAVVTRPFSYEGKRVHVAQAGLEQLKEHVDSLIIIPNDKLMTALGEDVTMREAFRAADNVLRDAVAGISEVVTCPSEIINLDFADVKTVMSNRGIAMMGSGYAQGIDRARMATDQAISSPLLDDVTLDGARGVLVNITTAPGCLKMSELSEVMKIVNQSAHPDLECKFGAAEDETMSEDAIRITIIATGLKEKGAVDPTPEREVEAVAPSKQEQSHIVEGMIRTNRGIRTMNLTAADFDNQSVLDDFEIPAILRRQHNSDK
notes: FtsZ of Neisseria gonorrhoeae CH811, full-length ftsZ (primers P19/P20) cloned BglII/EcoRI into pET30a; also called polymerized FtsZNg; not shown: His6, N-terminal, cleaved
B4: in data set [9], the Kd stood at 14.9 µM, the koff is 0.00531 s⁻¹ and the on-rate constant (kon) amounted to 356 M⁻¹ s⁻¹. Besides, the binding result in [10] was “binds”.

B5: N. gonorrhoeae FtsZ, bacterial two-hybrid fusion (natural protein, Neisseria gonorrhoeae, UniProt P72079 1-392, looked up)
chain: B4 chain
notes: FtsZ of Neisseria gonorrhoeae; Cloned in both vectors (pcIp22 and pcI434); each fusion carries one of the two repressor ends; also called FtsZNg; pcIp22-Z; source: bacterial two-hybrid fusion, expressed in E. coli R721
With B5, the residual β-galactosidase activity was determined as 41% in data set [2] and 39% in data set [6].
